{"source": "patent US20250313627A1", "about": "(FUSE BIOTHERAPEUTICS, published 2025)", "binders": {"B1": {"name": "FUSE-497 (h5A1-Ac13) (bispecific antibody, human IgG1, lambda, L234A L235A)", "heavy": "EVQLVESGGGLVQPGGSLRLSCAASGFTFSTYAMNWVRQAPGKGLEWVARIRSKYNNYATYYADSVKDRFTISRDDSKNTLYLQMNSLRAEDTAVYYCARHGNFGNSYVSWFAYWGQGTMVTVSSASTKGPSVFPLAPSSKSTSGGTAALGCLVKDYFPEPVTVSWNSGALTSGVHTFPAVLQSSGLYSLSSVVTVPSSSLGTQTYICNVNHKPSNTKVDKKVEPKSCDKTHTCPPCPAPEAAGGPSVFLFPPKPKDTLMISRTPEVTCVVVDVSHEDPEVKFNWYVDGVEVHNAKTKPREEQYNSTYRVVSVLTVLHQDWLNGKEYKCKVSNKALPAPIEKTISKAKGQPREPQVYTLPPSREEMTKNQVSLSCAVKGFYPSDIAVEWESNGQPENNYKTTPPVLDSDGSFFLVSKLTVDKSRWQQGNVFSCSVMHEALHNRFTQKSLSLSPGK", "chain": "EVQLLESGGGLVPRGGSLRLSCTASGYTNRLKCMGWFRQAPGKEREEIATISTGTGNTYYADSVKGRFTISRDNSRNTLYLQMKTLRAEDTAVYYCAADVRPDGTTCHYNSWGQGTQVTVSSEPKSSDKTHTCPPCPAPEAAGGPSVFLFPPKPKDTLMISRTPEVTCVVVDVSHEDPEVKFNWYVDGVEVHNAKTKPREEQYNSTYRVVSVLTVLHQDWLNGKEYKCKVSNKALPAPIEKTISKAKGQPREPQVYTLPPSREEMTKNQVSLWCLVKGFYPSDIAVEWESNGQPENNYKTTPPVLDSDGSFFLYSKLTVDKSRWQQGNVFSCSVMHEALHNHYTQKSLSLSPGK", "light": "QAVVTQEPSLTVSPGGTVTLTCRSSTGAVTTSNYANWVQQKPGQAPRGLIGGTNKRAPGTPARFSGSLLGGKAALTLSGVQPEDEAEYYCALWYSNLWVFGGGTKLTVLGQPKAAPSVTLFPPSSEELQANKATLVCLISDFYPGAVTVAWKADSSPVKAGVETTTPSKQSNNKYAASSYLSLTPEQWKSHRSYSCQVTHEGSTVEKTVAPTECSGGGGSGGGGSGGGGSGGGGSEVQLLESGGGLVPRGGSLRLSCTASGYTNRLKCMGWFRQAPGKEREEIATISTGTGNTYYADSVKGRFTISRDNSRNTLYLQMKTLRAEDTAVYYCAADVRPDGTTCHYNSWGQGTQVTVSS", "notes": "Format Ac13"}, "B2": {"name": "FUSE-597 (h5A1-HK2 Fc) (Fc fusion)", "chain": "EVQLLESGGGLVQPGGSLRLSCAASGYTNRLKCMGWFRQAPGKERELASISTGTGNTYYADSVKGRFTISRDGSKNTLYLQMNSLRAEDTAVYYCAADVRPDGTTCHYNSRGQGTLVTVSS", "notes": "VHH-Fc format; not shown: Fc of the VHH-Fc format"}, "B3": {"name": "FUSE-569 (h5A1-FA17 Fc) (Fc fusion)", "chain": "B2 chain with E1Q, L5V, A23S, G73N, E88D, R111W, L116Q", "notes": "as for B2"}, "B4": {"name": "FUSE-598 (h5A1-HK6 Fc) (Fc fusion)", "chain": "B2 chain with R71Q", "notes": "as for B2"}, "B5": {"name": "FUSE-524 (h5A1-HK1_Fc) (Fc fusion)", "chain": "B2 chain with G73N, R86K", "notes": "VHH-Fc format; also called humanized clone 5A1-HK1; 5A1-H1; not shown: Fc of the VHH-Fc format"}, "B6": {"name": "FUSE-563 (h5A1-FA11 Fc) (Fc fusion)", "chain": "EVQLLESGGGLVQPGGSLKLSCTASGYTNRLKCMGWFRQAPGKEREEIATISTGTGNTYYADSVKGRFTISQDRSKNTLYLQMNSLRAEDTAVYYCAADVRPDGTTCHYNSWGQGTLVTVSS", "notes": "as for B2"}, "B7": {"name": "FUSE-570 (h5A1-FA18 Fc) (Fc fusion)", "chain": "QVQLVESGGGLVQPGGSLRLSCSASGYTNRLKCMGWFRQAPGKEREEIATISSGTGNTYYADSVKGRFTFSRDNSKNTLYLQMNSLRAEDTGMYYCAADVRPDGTTCHYNSGGQGTQVTVSS", "notes": "as for B2"}}, "key": {"[1]": {"molecular_target": "T1, human ROR1 (Receptor Tyrosine Kinase-Like Orphan Receptor 1) on the cell surface (human, UniProt Q01973 30-937)", "T1 construct": "whole, on cells; engineered into B16-F10 (high density) and LS174T (low density) cells; also called B16-F10-ROR1-H; LS174T-ROR1-L", "T1 sequence (Q01973 30-937)": "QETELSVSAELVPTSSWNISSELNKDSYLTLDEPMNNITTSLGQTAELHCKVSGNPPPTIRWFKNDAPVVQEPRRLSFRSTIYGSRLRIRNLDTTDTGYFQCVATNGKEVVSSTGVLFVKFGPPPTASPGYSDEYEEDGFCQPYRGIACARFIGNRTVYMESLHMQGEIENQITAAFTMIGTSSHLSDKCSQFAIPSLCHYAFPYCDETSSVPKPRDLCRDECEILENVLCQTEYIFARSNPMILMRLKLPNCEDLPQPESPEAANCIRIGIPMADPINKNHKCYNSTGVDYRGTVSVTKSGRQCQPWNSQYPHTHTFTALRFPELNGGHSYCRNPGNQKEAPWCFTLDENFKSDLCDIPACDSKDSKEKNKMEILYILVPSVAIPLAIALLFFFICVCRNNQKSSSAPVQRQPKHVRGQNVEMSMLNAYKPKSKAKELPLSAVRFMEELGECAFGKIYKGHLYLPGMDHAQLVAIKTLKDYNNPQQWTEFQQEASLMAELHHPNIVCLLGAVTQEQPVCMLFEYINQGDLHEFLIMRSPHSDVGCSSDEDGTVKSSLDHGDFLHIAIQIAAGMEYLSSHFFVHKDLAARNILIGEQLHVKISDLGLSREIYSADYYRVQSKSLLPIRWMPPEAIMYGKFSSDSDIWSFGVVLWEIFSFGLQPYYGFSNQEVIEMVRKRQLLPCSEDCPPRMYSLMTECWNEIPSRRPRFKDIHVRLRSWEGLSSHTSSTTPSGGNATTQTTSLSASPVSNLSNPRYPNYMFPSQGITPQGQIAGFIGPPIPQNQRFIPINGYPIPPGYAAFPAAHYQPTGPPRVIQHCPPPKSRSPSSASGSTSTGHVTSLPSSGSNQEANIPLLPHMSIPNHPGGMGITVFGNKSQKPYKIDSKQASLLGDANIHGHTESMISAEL", "assay": "flow cytometry, B16-F10 cells expressing human ROR1 (high density)", "experimental": "(§1) As shown in the tables below, mouse B16-F10 melanoma (Tables 9A-9F) or LS174T human colorectal adenocarcinoma (Tables 9G-9H) cells genetically engineered to express human ROR1 at high and low densities, respectively, were stained for flow cytometric analysis with 100 nM of humanized variants of the ROR1 specific VHHs, 5A1 or 2A11 in either a VHH-Fc format or the Ac13 format shown in FIG. 1. Cells were analyzed on a flow cytometer after the primary test article was fluorescently tagged with a goat anti human IgG-Fc specific PE secondary antibody. The positive control used was PE conjugated anti-human ROR1 clone 2A2. Negative controls included a PE labeled mouse IgG Ab, the secondary antibody only, the combination of a Hen Egg Lysozyme (HEL) specific antibody plus goat anti human IgG-Fc specific PE and Fluorescence Minus One (FMO). Other controls included the non-humanized version of 5A1-Fc (FUSE179), 2A11-Fc (FUSE112) and 5A1-Ac13 (FUSE488). Humanized variants were generated using computational design (FUSE489, FUSE497-498, FUSE563, FUSE569-570, and BI-HU9-VHH11-33), a yeast display library in which mutations were inserted into the Vernier zone residues of human framework indicated in GenBank accession number M99660 (FUSE524-525, FUSE589, FUSE597-598, FUSE537, FUSE661-662, BI-HU9-HK and BI-HU9-HK-1), and a second yeast display library in which mutations were inserted into the Vernier zone residues of human framework indicated in GenBank accession number AWH66715 and amino acid position 103 within CDR3 (FUSE559, FUSE590-596, BI-HU9-VH9-1, FUSE654-655 and FUSE661-662. Affinity matured variants of FUSE559 were also generated using computational design (F22158101-21; Table 9H)."}, "[2]": {"molecular_target": "T1, human ROR1 (Receptor Tyrosine …)", "assay": "flow cytometry, B16-F10 cells expressing human ROR1 (high density)", "experimental": "as §1", "remark": "listed apart in the source"}, "[3]": {"molecular_target": "T1, human ROR1 (Receptor Tyrosine …)", "assay": "flow cytometry, B16-F10 cells expressing human ROR1 (high density)", "experimental": "as §1", "remark": "listed apart in the source"}, "[4]": {"molecular_target": "T1, human ROR1 (Receptor Tyrosine …)", "assay": "flow cytometry on B16-F10 cells engineered to express human ROR1, secondary antibody to the IgG1 Fc", "experimental": "As shown in FIG. 15 the apparent binding affinity (EC50-binding) of the ROR1 specific VHH-Fc incorporating either the non humanized VHH clone 5A1 (FUSE179; black circle), the humanized clone 5A1-FA9-HK1 (FUSE559; black square) or the humanized clone 5A1-HK1 (FUSE524; black triangle) was calculated. Shown is a non-linear x-y plot of binding to B16-F10 cell engineered to express human ROR1 relative to the concentration of test article used for staining. A Hen Egg Lysozyme (HEL)-specific antibody was used as the negative isotype control. Binding was measured via flow cytometry using a fluorescently labeled secondary antibody specific for the Fc domain of IgG1. A summary table of EC50s and maximum MFI is shown beneath under the graph."}}, "note": "Where a chain is given by its changes, count along the chain named. Like-named read-outs stand apart in the source and are kept apart here."}
{"binder": "B1", "values": [{"measurement": "MFI", "setting": "[1]", "result": 811}]}
{"binder": "B2", "values": [{"measurement": "MFI", "setting": "[2]", "result": 10100}]}
{"binder": "B3", "values": [{"measurement": "MFI", "setting": "[3]", "result": 590}]}
{"binder": "B4", "values": [{"measurement": "MFI", "setting": "[2]", "result": 9560}]}
{"binder": "B5", "values": [{"measurement": "MFI", "setting": "[1]", "result": 6470}, {"measurement": "EC50", "setting": "[4]", "result": 2.74, "unit": "nM"}, {"measurement": "Max MFI", "setting": "[4]", "result": 7080, "unit": "MFI"}]}
{"binder": "B6", "values": [{"measurement": "MFI", "setting": "[3]", "result": 388}]}
{"binder": "B7", "values": [{"measurement": "MFI", "setting": "[3]", "result": 583}]}
